Test results published in paper PMC2173303.

Target: HSF1 (Homo sapiens, UniProt Q00613 1-529)
Test: EMSA

HSF1, sequence (Q00613 whole entry): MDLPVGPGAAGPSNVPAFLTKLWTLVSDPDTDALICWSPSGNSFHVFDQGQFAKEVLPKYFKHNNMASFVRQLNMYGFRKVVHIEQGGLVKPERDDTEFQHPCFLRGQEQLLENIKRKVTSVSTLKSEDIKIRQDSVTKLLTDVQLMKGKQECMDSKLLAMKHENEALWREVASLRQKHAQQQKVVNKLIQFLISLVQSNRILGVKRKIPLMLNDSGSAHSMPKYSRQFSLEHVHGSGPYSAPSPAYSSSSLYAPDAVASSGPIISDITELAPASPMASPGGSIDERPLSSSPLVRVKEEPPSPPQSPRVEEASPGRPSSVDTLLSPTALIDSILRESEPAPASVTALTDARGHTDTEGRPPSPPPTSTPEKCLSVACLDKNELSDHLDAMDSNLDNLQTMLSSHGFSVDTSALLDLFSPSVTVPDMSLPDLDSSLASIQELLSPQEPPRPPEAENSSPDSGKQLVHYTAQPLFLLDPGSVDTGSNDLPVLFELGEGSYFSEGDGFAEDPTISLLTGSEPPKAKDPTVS

B1: HSE probe (dsDNA)
DNA 1: TCGGCTGGAATATTCCCGACCTGGCAGCCGA
DNA 2: TCGGCTGCCAGGTCGGGAATATTCCAGCCGA
- binding result: binds
